Patent US20240116985A1 (published 2024)
Starred links: 1 amine or outer side, 2 acyl side, 3 side chain; linkers in the order of their positions; H or OH if unused. Positions of bridges follow the written chain, without caps; N, C: chain ends. Non-standard residues stand in square brackets, D forms with d. Primed or numbered codes have the meaning given here. *: point of attachment. PyrS2″ = (S)-3-amino-1-((pent-4-en-1-yloxy)carbonyl)pyrrolidine-3-carboxylic acid (stapling residue), C=CCCCOC(=O)N1CC[C@@](N[*:1])(C(=O)[*:2])C1; (bismethoxyethylamine)GlnR = [bismethoxyethylamine]GlnR, N5,N5-bis(2-methoxyethyl)-L-glutamine, COCCN(CCOC)C(=O)CC[C@H](N[*:1])C(=O)[*:2]; B5(16) = 2-amino-2-(pent-4-en-1-yl)hept-6-enoic acid = 2,2-bis(4-pentenyl)glycine (stitching residue), C=CCCCC(CCCC=C)(N[*:1])C(=O)[*:2]; B5(4) = 2,2-bis(4-pentenyl)glycine = 2-amino-2-(pent-4-en-1-yl)hept-6-enoic acid (stitching residue), C=CCCCC(CCCC=C)(N[*:1])C(=O)[*:2]; (AcPpz)GlnR = [AcPpz]GlnR, (S)-5-(4-acetylpiperazin-1-yl)-2-amino-5-oxopentanoic acid, CC(=O)N1CCN(C(=O)CC[C@H](N[*:1])C(=O)[*:2])CC1; TfeGA = (S)-2-amino-3-((carboxymethyl)(2,2,2-trifluoroethyl)amino)propanoic acid, O=C([C@H](CN(CC(=O)[*:3])CC(F)(F)F)N[*:1])[*:2]; (4Pippip)GlnR″ = (S)-5-([1,4'-bipiperidin]-1'-yl)-2-amino-5-oxopentanoic acid, O=C(CC[C@H](N[*:1])C(=O)[*:2])N1CCC(N2CCCCC2)CC1; PyrS2 = (S)-3-amino-1-((pent-4-en-1-yloxy)carbonyl)pyrrolidine-3-carboxylic acid, C=CCCCOC(=O)N1CC[C@@](N[*:1])(C(=O)[*:2])C1; (AcPpz)GlnR″ = (S)-5-(4-acetylpiperazin-1-yl)-2-amino-5-oxopentanoic acid, CC(=O)N1CCN(C(=O)CC[C@H](N[*:1])C(=O)[*:2])CC1; (Morph)GlnR″ = [Morph]GlnR, (S)-2-amino-5-morpholino-5-oxopentanoic acid, O=C(CC[C@H](N[*:1])C(=O)[*:2])N1CCOCC1; MorphAsn = (S)-2-amino-4-morpholino-4-oxobutanoic acid, O=C(C[C@H](N[*:1])C(=O)[*:2])N1CCOCC1; 5hexenyl = N-terminal hex-5-enoic acid (acyl cap), C=CCCCC(=O)*; Phe(3-COOH) = N[C@@H](Cc1cccc(C(=O)O)c1)C(=O)O; Phe(2-CF3) = N[C@@H](Cc1ccccc1C(F)(F)F)C(=O)O; Phe(2-Cl) = N[C@@H](Cc1ccccc1Cl)C(=O)O; dαMeGly(allyl) = C=CC[C@@](C)(N)C(=O)O; Bta = N[C@@H](Cc1csc2ccccc12)C(=O)O; αAllylPro = C=CC[C@@]1(C(=O)O)CCCN1; Morpholinoacetyl = O=C(CN1CCOCC1)*; tBuAla = CC(C)(C)C[C@H](N)C(=O)O; 3Thi = N[C@@H](Cc1ccsc1)C(=O)O; Cha = N[C@@H](CC1CCCCC1)C(=O)O; AllylGly = C=CC[C@H](N)C(=O)O; R5 = C=CCCC[C@@](C)(N)C(=O)O; Nle = CCCC[C@H](N)C(=O)O; NH(CH2)6NH2 = NCCCCCCN*; Abu = CC[C@H](N)C(=O)O; Aib = CC(C)(N)C(=O)O

B1: I-2529 (peptide)
peptide: 5hexenyl-[αAllylPro]D[AllylGly][B5(4)]D[Phe(3-COOH)]AAFL[PyrS2″][Phe(2-CF3)][Bta]Q-NH2
modifications: staple (positions not given here); not fully specified (bridges); printed as 5hexenyl-PL3-Asp-AllylGly-B5-Asp-3COOHF-Ala-Ala-Phe-Leu-PyrS2-2F3MeF-BztA-Gln-NH2; also: staple C=C reduced to CH2-CH2, staple partners not given here
B2: I-2523 (peptide)
peptide: Ac-[αAllylPro]N[Cha][B5(4)]DQKAFL[PyrS2]F[Bta][MorphAsn]-NH2
modifications: staple 1-4, 4-11; not fully specified (residue 7); printed as Ac-PL3-Asn-Cha-B5-Asp-Gln-[Phc]Lys-Ala-Phe-Leu-PyrS2-Phe-BztA-MorphAsn-NH2
B3: I-2565 (peptide)
peptide: Ac-[R5]D[tBuAla][B5(4)]D[Phe(3-COOH)]AAFL[PyrS2″][Phe(2-CF3)][Bta]Q-NH2
modifications: staple 1-4, 4-11; not fully specified; printed as Ac-R5-Asp-Npg-B5-Asp-3COOHF-Ala-Ala-Phe-Leu-PyrS2-2F3MeF-BztA-Gln-NH2

molecular target: T1, B-cat-Halo (beta-catenin HaloTag construct expressed in HEK293 cells) (UniProt P35222 1-781); assay: cell-based or functional assay
T1 sequence (looked up): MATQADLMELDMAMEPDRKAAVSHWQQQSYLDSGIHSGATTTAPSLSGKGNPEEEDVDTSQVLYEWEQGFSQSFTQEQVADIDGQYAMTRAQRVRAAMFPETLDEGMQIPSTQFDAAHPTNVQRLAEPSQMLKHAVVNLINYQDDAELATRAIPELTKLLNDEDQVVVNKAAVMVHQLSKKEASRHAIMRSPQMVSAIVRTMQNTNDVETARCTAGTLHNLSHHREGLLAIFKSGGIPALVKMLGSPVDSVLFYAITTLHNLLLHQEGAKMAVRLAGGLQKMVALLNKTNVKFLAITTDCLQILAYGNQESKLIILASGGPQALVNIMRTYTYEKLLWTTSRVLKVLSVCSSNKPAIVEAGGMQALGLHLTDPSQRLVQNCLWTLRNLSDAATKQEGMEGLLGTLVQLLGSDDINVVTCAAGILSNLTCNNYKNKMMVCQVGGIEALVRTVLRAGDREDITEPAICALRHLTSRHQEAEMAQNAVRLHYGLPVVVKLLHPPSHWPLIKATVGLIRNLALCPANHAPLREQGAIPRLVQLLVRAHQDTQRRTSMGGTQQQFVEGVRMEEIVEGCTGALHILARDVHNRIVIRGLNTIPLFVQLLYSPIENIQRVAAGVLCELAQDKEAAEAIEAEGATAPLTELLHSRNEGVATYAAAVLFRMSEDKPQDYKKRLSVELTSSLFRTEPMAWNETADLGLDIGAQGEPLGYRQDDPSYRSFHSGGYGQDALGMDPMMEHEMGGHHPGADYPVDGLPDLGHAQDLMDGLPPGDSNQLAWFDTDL

First: Ac-[αAllylPro]N[Cha][B5(4)]DQK(Morpholinoacetyl)AFL[PyrS2]F[Bta][MorphAsn]-NH2 (staple 1-4, 4-11) [I-2527]
Second: Ac-[αAllylPro]D[tBuAla][B5(4)]D[Phe(3-COOH)]AAFL[PyrS2″][Phe(2-CF3)][Bta][Me2Gln]-NH2 (staple 1-4, 4-11) [I-2532]
The “NanoBRET Abs IC50 (uM); Bcat-Halo / TCF4-Luc in HEK293 cells” value of the first is higher: > 20 µM for the first, 4.5 µM for the second.

B1 and B2 cannot be ordered by “NanoBRET Abs IC50 (uM); Bcat-Halo / TCF4-Luc in HEK293 cells” value: 33.2 µM for the first, > 20 µM for the second.

Ac-[αAllylPro]N[Cha][B5(4)]DQK(mPEG4)AFL[PyrS2]F[Bta][MorphAsn]-NH2 (staple 1-4, 4-11) [I-2526] was tested, and the “NanoBRET Abs IC50 (uM); Bcat-Halo / TCF4-Luc in HEK293 cells” value was > 20 µM.

molecular target: T2, B-cat-Halo (UniProt P35222 1-781); assay: cell-based or functional assay
T2 sequence (looked up): T1 sequence (looked up)

Compared with Ac-[αAllylPro]D[tBuAla][B5(4)]D[TfeGA]AAFT[PyrS2][Phe(2-Cl)][Bta]Q-{NH(CH2)6NH2} (staple 1-4, 4-11) [I-1061], Ac-[αAllylPro]D[tBuAla][B5(4)]DDAAFL[PyrS2″][Phe(2-Cl)][Bta]Q-NH2 (staple 1-4, 4-11) [I-1062] is 2.2-fold lower in “NanoBRET Abs IC50” value: 10.3 µM for the first, 4.7 µM for the second.

Going from Ac-[αAllylPro]D[Cha][B5(16)]DDAAFT[PyrS2″][Phe(2-Cl)][Bta]Q-NH2 (staple 1-4, 4-11) [I-1042] to Ac-[αAllylPro]D[Cha][B5(16)]DDAAFS[PyrS2″][Phe(2-Cl)][Bta]Q-NH2 (staple 1-4, 4-11) [I-1044], the “NanoBRET Abs IC50” value rises from 11.4 µM to 17.6 µM (1.5-fold).

Ac-[αAllylPro]D[Cha][B5(16)]DDAAFN[PyrS2″][Phe(2-Cl)][Bta]S-NH2 (staple 1-4, 4-11) [I-1046] and Ac-[αAllylPro]D[Cha][B5(4)]DDAAFS[PyrS2][Phe(2-Cl)][Bta]S-NH2 (staple 1-4, 4-11) [I-1050] are within 1.5-fold of each other in “NanoBRET Abs IC50” value: 20.5 µM for the first, 24.8 µM for the second.

Ac-[αAllylPro]D[Cha][B5(4)]DDAAFT[PyrS2″][Phe(2-Cl)][Bta]S-NH2 (staple 1-4, 4-11) [I-1048] and Ac-[αAllylPro]D[Cha][B5(16)]DDAAFN[PyrS2″][Phe(2-Cl)][Bta]Q-NH2 (staple 1-4, 4-11) [I-1040] are within 1.5-fold of each other in “NanoBRET Abs IC50” value: 8.8 µM for the first, 9.3 µM for the second.

molecular target: T3, B-cat-Halo (beta-catenin HaloTag fusion expressed in HEK293 cells) (UniProt P35222 1-781); assay: cell-based or functional assay
T3 sequence (looked up): T1 sequence (looked up)

First: Ac-[dαMeGly(allyl)]D[tBuAla][B5(4)]D[Phe(3-COOH)]AAFL[PyrS2″][Phe(2-CF3)][Bta]Q-NH2 (staple 1-4, 4-11) [I-2563]
Second: Ac-P[dαMeGly(allyl)]D[tBuAla][B5(4)]D[Phe(3-COOH)]AAFL[PyrS2″][Phe(2-CF3)][Bta]Q-NH2 (staple 5-12, 2-5; also: -CH=CH- in each staple reduced to -CH2-CH2-) [I-2572]
The “NanoBRET Abs IC50” value of the first is lower: 17 µM for the first, > 20 µM for the second.

Compared with Ac-[αAllylPro]D[tBuAla][B5(4)]D[Phe(3-COOH)][Aib]AF[Nle][PyrS2″][3Thi][Bta][(4F3CPip)GlnR]-NH2 (staple 1-4, 4-11) [I-2557], Ac-[αAllylPro]D[tBuAla][B5(4)]D[Phe(3-COOH)][Aib]AF[Nle][PyrS2″][3Thi][Bta][(AcPpz)GlnR]-NH2 (staple 1-4, 4-11) [I-2556] is 2.8-fold lower in “NanoBRET Abs IC50” value: 19.6 µM for the first, 7 µM for the second.

Compared with Ac-[αAllylPro]D[tBuAla][B5(4)]D[Phe(3-COOH)][Aib]AF[Nle][PyrS2″][3Thi][Bta][(Morph)GlnR″]-NH2 (staple 1-4, 4-11) [I-2553], B3 is 2.6-fold higher in “NanoBRET Abs IC50” value: 8.2 µM for the first, 21 µM for the second.

Going from Ac-[αAllylPro]D[tBuAla][B5(4)]D[Phe(3-COOH)][Aib]AF[Abu][PyrS2″][3Thi][Bta][(bismethoxyethylamine)GlnR]-NH2 (staple 1-4, 4-11) [I-2559] to Ac-[αAllylPro]D[tBuAla][B5(4)]D[Phe(3-COOH)][Aib]AF[Nle][PyrS2″][3Thi][Bta][(4Pippip)GlnR]-NH2 (staple 1-4, 4-11) [I-2555], the “NanoBRET Abs IC50” value rises from 3.8 µM to 22.1 µM (5.8-fold).

First: Ac-[αAllylPro]D[tBuAla][B5(4)]D[Phe(3-COOH)][Aib]AF[Abu][PyrS2″][3Thi][Bta][(4Pippip)GlnR″]-NH2 (staple 1-4, 4-11) [I-2560]
Second: Ac-[αAllylPro]D[tBuAla][B5(4)]D[Phe(3-COOH)][Aib]AF[Nle][PyrS2″][3Thi][Bta][(bismethoxyethylamine)GlnR]-NH2 (staple 1-4, 4-11) [I-2554]
The “NanoBRET Abs IC50” value of the first is 5.8-fold higher: 19.3 µM for the first, 3.3 µM for the second.

First: Ac-[αAllylPro]D[tBuAla][B5(4)]D[Phe(3-COOH)][Aib]AF[Abu][PyrS2″][3Thi][Bta][(AcPpz)GlnR″]-NH2 (staple 1-4, 4-11) [I-2561]
Second: Ac-[αAllylPro]D[tBuAla][B5(4)]D[Phe(3-COOH)][Aib]AF[Abu][PyrS2″][3Thi][Bta][(Morph)GlnR″]-NH2 (staple 1-4, 4-11) [I-2558]
The “NanoBRET Abs IC50” value of the first is 2-fold lower: 7.2 µM for the first, 14.7 µM for the second.

In the case of Ac-[R5]D[tBuAla][B5(4)]D[Phe(3-COOH)]AAFL[PyrS2″][Phe(2-CF3)][Bta]Q-NH2 (staple 1-4, 4-11; also: -CH=CH- in each staple reduced to -CH2-CH2-) [I-2571], the “NanoBRET Abs IC50” value is reported as 24 µM.
